In PMC4900533:

Experiments:
[1] = immunoblot after 24 h 2 μM MG132; conditions: glycan lost; control: wild type
[2] = cycloheximide chase, immunoblot, MDCKII; conditions: glycan lost; control: wild type
[3] = confocal microscopy after 12 h cycloheximide; conditions: glycan lost; control: wild type
[4] = immunoblot, high vs low glucose medium, MDCKII; conditions: glycan lost; control: wild type
[5] = immunoblot of PNGase F-treated MDCKII lysates, densitometry; conditions: glycan lost; control: wild type
[6] = immunoblot, ABCC11-EGFP in MDCKII, PNGase F-treated lysates; conditions: glycan lost; control: untreated cells
[7] = confocal microscopy, apical marker gp135, MDCKII; conditions: glycan lost; control: wild type
[8] = immunoblot, non-tagged ABCC11, adenovirus-infected MDCKII; conditions: glycan lost; control: untreated cells
[9] = immunoblot of ABCC11 WT, with/without PNGase F, MDCKII; conditions: glycan lost; control: high glucose medium

With ABCC11 (MRP8): Q838/844 the “other: MG132-sensitive degradation, fold_change” value [1] was “increases, about 2-fold vs no significant difference”, the “degradation_or_half_life, half_life” value [2] was “decreases, about 6.2 vs about 12” and the degradation_or_half_life [3] was “decreases”. The “other: glucose sensitivity of protein level” value [4] was “abolishes” and the “expression_or_secretion, percent_of_wt” value [5] was “decreases”.

With “ABCC11 (MRP8): tunicamycin (0.8, 4.0 μg/mL)” the expression_or_secretion [6] was “decreases”.

With ABCC11 (MRP8): Q838 the localisation_or_trafficking [7] was “no change” and the “expression_or_secretion, percent_of_wt” value [5] was “no change”.

For ABCC11 (MRP8): tunicamycin (4.0 μg/mL), the “expression_or_secretion, other: percent of untreated control” value [8] was “decreases”.

In the case of ABCC11 (MRP8): Q844, the localisation_or_trafficking [7] is reported as “no change” and the “expression_or_secretion, percent_of_wt” value [5] is reported as “no change”.

In the case of ABCC11 (MRP8): low glucose medium, the expression_or_secretion [9] is reported as “decreases”.
